The source of these data is publication PMC6607443, “Systematic identification of recognition motifs for the hub protein LC8” (Life Science Alliance, 2019).

For this test, the target named is dynein light chain LC8 (UniProt P63167). As to the kind of experiment: ITC; peptide (500 μM) injected into 25 μM LC8 in the cell; 25°C; 50 mM sodium phosphate, 50 mM NaCl, 1 mM sodium azide, 5 mM β-mercaptoethanol, pH 7.5; single-site model; averages of two to three experiments. (ITC needs no label: the signal is the heat of the interaction.)
Chain of dynein light chain LC8 (P63167 whole entry): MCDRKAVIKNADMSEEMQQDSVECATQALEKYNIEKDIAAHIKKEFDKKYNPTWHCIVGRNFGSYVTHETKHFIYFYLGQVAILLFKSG

As a reminder, the Kd is the free concentration of one partner at which half of the binding sites on the other are occupied at equilibrium, for simple one-to-one binding. Low values mean a tighter complex, high ones a looser complex. “HIV Tat-specific factor 1 (HTATSF1) peptide” yielded a Kd of 10 µM and a stoichiometry N (peptide per LC8 chain) of 1.
